The values that follow are results of earlier work, collected in paper PMC4464844.

The term pKa denotes the negative logarithm of the acid dissociation constant.

Data set [1] deals with Tyr9 (UniProt position 9, KPKLHYFNARG).
Data set [2] addresses Tyr9 (UniProt position 9, KPKLHYFNGRG).
Data set [3] has as its target Tyr9 (UniProt position 9, RPKLHYPNGRG).

As to “Glutathione transferase A1-1 (hGSTA1-1) (Homo sapiens)”, the pKa in data set [1] is 8.1.
“Glutathione transferase A1-1 GIMFhelix mutant (Homo sapiens; A12G;L107I;L108M;V111F;residues 208-222 replaced by the GSTA4-4 sequence)”: the pKa in data set [2] is given as 7.3.
As for “Glutathione transferase A4-4 (hGSTA4-4) (Homo sapiens)”, the pKa in data set [3] is 6.7.
